# The supplement of paper PMC11908140
# B1: library; numbered along this chain (parent)
# chain: MRKPRAAVGSGHRKQAASQEGRQKHAKNNSQAKPSACDGLARQPEEVVLQASVSSYHLFRDVAEVTAFRGSLLSWYDQEKRDLPWRRRAEDEMDLDRRAYAVWVSEVMLQQTQVATVINYYTGWMQKWPTLQDLASASLEEVNQLWAGLGYYSRGRRLQEGARKVVEELGGHMPRTAETLQQLLPGVGRYTAGAIASIAFGQATGVVDGNVARVLCRVRAIGADPSSTLVSQQLWGLAQQLVDPARPGDFNQAAMELGATVCTPQRPLCSQCPVESLCRARQRVEQEQLLASGSLSGSPDVEECAPNTGQCHLCLPPSEPWDQTLGVVNFPRKASRKPPREESSATCVLEQPGALGAQILLVQRPNSGLLAGLWEFPSVTWEPSEQLQRKALLQELQRWAGPLPATHLRHLGEVVHTFSHIKLTYQVYGLALEGQTPVTTVPPGARWLTQEEFHTAAVSTAMKKVFRVYQGQQPGTCMGSKRSQVSSPCSRKKPRMGQQVLDNFFRSHISTDAHSLNSAAQ
# Variants of: B1
# Assay: 8OG:A repair function score (normalized; synonymous = 0, nonsense = -1) (normalized log-likelihood score); higher = more repair activity (WT-like)
# Settings: with 8OG:A DNA repair reporter (GFP) in HEK-293 MUTYH KO cells
# Procedure, shortened: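 With 10 pg/ml doxycycline, MUTYH knockout HEK-293 cells carrying lentiviral MUTYH cDNA NNN codon-scan libraries were co-transfected with mCherry and an 8OG:A GFP repair reporter. Viable mCherry+ cells were sorted into GFP+ (repair) and GFP− bins at 72 h, three replicates per tile, and tile amplicons were sequenced. Per-tile Rosace fitness scores were then normalized into a repair function score anchored on synonymous and nonsense distributions. Medians were fixed at 0 for synonymous and -1 for nonsense, excluding variants under 300 counts per million at the start.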
row,Variant,8OG:A repair function score
1,MRKPRAAVGSGHRKQAASQEGRQKHAKNNSQAKPSACDGLARQPEEVVLQASVSSYHLFRDVAEVTAFRGSLLSWYDQEKRDLPWRRRAEDEMDLDRRAYAVWVSEVMLQQTQVATVINYYTGWMQKWPTLQDLASASLEEVNQLWAGLGYYSRGRRLQEGARKVVEELGGHMPRTAETLQQLLPGVGRYTRGAIASIAFGQATGVVDGNVARVLCRVRAIGADPSSTLVSQQLWGLAQQLVDPARPGDFNQAAMELGATVCTPQRPLCSQCPVESLCRARQRVEQEQLLASGSLSGSPDVEECAPNTGQCHLCLPPSEPWDQTLGVVNFPRKASRKPPREESSATCVLEQPGALGAQILLVQRPNSGLLAGLWEFPSVTWEPSEQLQRKALLQELQRWAGPLPATHLRHLGEVVHTFSHIKLTYQVYGLALEGQTPVTTVPPGARWLTQEEFHTAAVSTAMKKVFRVYQGQQPGTCMGSKRSQVSSPCSRKKPRMGQQVLDNFFRSHISTDAHSLNSAAQ [A192R],-0.901
2,MRKPRAAVGSGHRKQAASQEGRQKHAKNNSQAKPSACDGLARQPEEVVLQASVSSYHLFRDVAEVTAFRGSLLSWYDQEKRDLPWRRRAEDEMDLDRRAYAVWVSEVMLQQTQVATVINYYTGWMQKWPTLQDLASASLEEVNQLWAGLGYYSRGRRLQEGARKVVEELGGHMPRTAETLQQLLPGVGRYTTGAIASIAFGQATGVVDGNVARVLCRVRAIGADPSSTLVSQQLWGLAQQLVDPARPGDFNQAAMELGATVCTPQRPLCSQCPVESLCRARQRVEQEQLLASGSLSGSPDVEECAPNTGQCHLCLPPSEPWDQTLGVVNFPRKASRKPPREESSATCVLEQPGALGAQILLVQRPNSGLLAGLWEFPSVTWEPSEQLQRKALLQELQRWAGPLPATHLRHLGEVVHTFSHIKLTYQVYGLALEGQTPVTTVPPGARWLTQEEFHTAAVSTAMKKVFRVYQGQQPGTCMGSKRSQVSSPCSRKKPRMGQQVLDNFFRSHISTDAHSLNSAAQ [A192T],-1.07
3,MRKPRAAVGSGHRKQAASQEGRQKHAKNNSQAKPSACDGLARQPEEVVLQASVSSYHLFRDVAEVTAFRGSLLSWYDQEKRDLPWRRRAEDEMDLDRRAYAVWVSEVMLQQTQVATVINYYTGWMQKWPTLQDLASASLEEVNQLWAGLGYYSRGRRLQEGARKVVEELGGHMPRTAETLQQLLPGVGRYTIGAIASIAFGQATGVVDGNVARVLCRVRAIGADPSSTLVSQQLWGLAQQLVDPARPGDFNQAAMELGATVCTPQRPLCSQCPVESLCRARQRVEQEQLLASGSLSGSPDVEECAPNTGQCHLCLPPSEPWDQTLGVVNFPRKASRKPPREESSATCVLEQPGALGAQILLVQRPNSGLLAGLWEFPSVTWEPSEQLQRKALLQELQRWAGPLPATHLRHLGEVVHTFSHIKLTYQVYGLALEGQTPVTTVPPGARWLTQEEFHTAAVSTAMKKVFRVYQGQQPGTCMGSKRSQVSSPCSRKKPRMGQQVLDNFFRSHISTDAHSLNSAAQ [A192I],-1.07
4,MRKPRAAVGSGHRKQAASQEGRQKHAKNNSQAKPSACDGLARQPEEVVLQASVSSYHLFRDVAEVTAFRGSLLSWYDQEKRDLPWRRRAEDEMDLDRRAYAVWVSEVMLQQTQVATVINYYTGWMQKWPTLQDLASASLEEVNQLWAGLGYYSRGRRLQEGARKVVEELGGHMPRTAETLQQLLPGVGRYTPGAIASIAFGQATGVVDGNVARVLCRVRAIGADPSSTLVSQQLWGLAQQLVDPARPGDFNQAAMELGATVCTPQRPLCSQCPVESLCRARQRVEQEQLLASGSLSGSPDVEECAPNTGQCHLCLPPSEPWDQTLGVVNFPRKASRKPPREESSATCVLEQPGALGAQILLVQRPNSGLLAGLWEFPSVTWEPSEQLQRKALLQELQRWAGPLPATHLRHLGEVVHTFSHIKLTYQVYGLALEGQTPVTTVPPGARWLTQEEFHTAAVSTAMKKVFRVYQGQQPGTCMGSKRSQVSSPCSRKKPRMGQQVLDNFFRSHISTDAHSLNSAAQ [A192P],-1.17
5,MRKPRAAVGSGHRKQAASQEGRQKHAKNNSQAKPSACDGLARQPEEVVLQASVSSYHLFRDVAEVTAFRGSLLSWYDQEKRDLPWRRRAEDEMDLDRRAYAVWVSEVMLQQTQVATVINYYTGWMQKWPTLQDLASASLEEVNQLWAGLGYYSRGRRLQEGARKVVEELGGHMPRTAETLQQLLPGVGRYTLGAIASIAFGQATGVVDGNVARVLCRVRAIGADPSSTLVSQQLWGLAQQLVDPARPGDFNQAAMELGATVCTPQRPLCSQCPVESLCRARQRVEQEQLLASGSLSGSPDVEECAPNTGQCHLCLPPSEPWDQTLGVVNFPRKASRKPPREESSATCVLEQPGALGAQILLVQRPNSGLLAGLWEFPSVTWEPSEQLQRKALLQELQRWAGPLPATHLRHLGEVVHTFSHIKLTYQVYGLALEGQTPVTTVPPGARWLTQEEFHTAAVSTAMKKVFRVYQGQQPGTCMGSKRSQVSSPCSRKKPRMGQQVLDNFFRSHISTDAHSLNSAAQ [A192L],-1.11
6,MRKPRAAVGSGHRKQAASQEGRQKHAKNNSQAKPSACDGLARQPEEVVLQASVSSYHLFRDVAEVTAFRGSLLSWYDQEKRDLPWRRRAEDEMDLDRRAYAVWVSEVMLQQTQVATVINYYTGWMQKWPTLQDLASASLEEVNQLWAGLGYYSRGRRLQEGARKVVEELGGHMPRTAETLQQLLPGVGRYTMGAIASIAFGQATGVVDGNVARVLCRVRAIGADPSSTLVSQQLWGLAQQLVDPARPGDFNQAAMELGATVCTPQRPLCSQCPVESLCRARQRVEQEQLLASGSLSGSPDVEECAPNTGQCHLCLPPSEPWDQTLGVVNFPRKASRKPPREESSATCVLEQPGALGAQILLVQRPNSGLLAGLWEFPSVTWEPSEQLQRKALLQELQRWAGPLPATHLRHLGEVVHTFSHIKLTYQVYGLALEGQTPVTTVPPGARWLTQEEFHTAAVSTAMKKVFRVYQGQQPGTCMGSKRSQVSSPCSRKKPRMGQQVLDNFFRSHISTDAHSLNSAAQ [A192M],-0.964
7,MRKPRAAVGSGHRKQAASQEGRQKHAKNNSQAKPSACDGLARQPEEVVLQASVSSYHLFRDVAEVTAFRGSLLSWYDQEKRDLPWRRRAEDEMDLDRRAYAVWVSEVMLQQTQVATVINYYTGWMQKWPTLQDLASASLEEVNQLWAGLGYYSRGRRLQEGARKVVEELGGHMPRTAETLQQLLPGVGRYTVGAIASIAFGQATGVVDGNVARVLCRVRAIGADPSSTLVSQQLWGLAQQLVDPARPGDFNQAAMELGATVCTPQRPLCSQCPVESLCRARQRVEQEQLLASGSLSGSPDVEECAPNTGQCHLCLPPSEPWDQTLGVVNFPRKASRKPPREESSATCVLEQPGALGAQILLVQRPNSGLLAGLWEFPSVTWEPSEQLQRKALLQELQRWAGPLPATHLRHLGEVVHTFSHIKLTYQVYGLALEGQTPVTTVPPGARWLTQEEFHTAAVSTAMKKVFRVYQGQQPGTCMGSKRSQVSSPCSRKKPRMGQQVLDNFFRSHISTDAHSLNSAAQ [A192V],-0.943
8,MRKPRAAVGSGHRKQAASQEGRQKHAKNNSQAKPSACDGLARQPEEVVLQASVSSYHLFRDVAEVTAFRGSLLSWYDQEKRDLPWRRRAEDEMDLDRRAYAVWVSEVMLQQTQVATVINYYTGWMQKWPTLQDLASASLEEVNQLWAGLGYYSRGRRLQEGARKVVEELGGHMPRTAETLQQLLPGVGRYTQGAIASIAFGQATGVVDGNVARVLCRVRAIGADPSSTLVSQQLWGLAQQLVDPARPGDFNQAAMELGATVCTPQRPLCSQCPVESLCRARQRVEQEQLLASGSLSGSPDVEECAPNTGQCHLCLPPSEPWDQTLGVVNFPRKASRKPPREESSATCVLEQPGALGAQILLVQRPNSGLLAGLWEFPSVTWEPSEQLQRKALLQELQRWAGPLPATHLRHLGEVVHTFSHIKLTYQVYGLALEGQTPVTTVPPGARWLTQEEFHTAAVSTAMKKVFRVYQGQQPGTCMGSKRSQVSSPCSRKKPRMGQQVLDNFFRSHISTDAHSLNSAAQ [A192Q],-1.03
9,MRKPRAAVGSGHRKQAASQEGRQKHAKNNSQAKPSACDGLARQPEEVVLQASVSSYHLFRDVAEVTAFRGSLLSWYDQEKRDLPWRRRAEDEMDLDRRAYAVWVSEVMLQQTQVATVINYYTGWMQKWPTLQDLASASLEEVNQLWAGLGYYSRGRRLQEGARKVVEELGGHMPRTAETLQQLLPGVGRYTNGAIASIAFGQATGVVDGNVARVLCRVRAIGADPSSTLVSQQLWGLAQQLVDPARPGDFNQAAMELGATVCTPQRPLCSQCPVESLCRARQRVEQEQLLASGSLSGSPDVEECAPNTGQCHLCLPPSEPWDQTLGVVNFPRKASRKPPREESSATCVLEQPGALGAQILLVQRPNSGLLAGLWEFPSVTWEPSEQLQRKALLQELQRWAGPLPATHLRHLGEVVHTFSHIKLTYQVYGLALEGQTPVTTVPPGARWLTQEEFHTAAVSTAMKKVFRVYQGQQPGTCMGSKRSQVSSPCSRKKPRMGQQVLDNFFRSHISTDAHSLNSAAQ [A192N],-0.876
10,MRKPRAAVGSGHRKQAASQEGRQKHAKNNSQAKPSACDGLARQPEEVVLQASVSSYHLFRDVAEVTAFRGSLLSWYDQEKRDLPWRRRAEDEMDLDRRAYAVWVSEVMLQQTQVATVINYYTGWMQKWPTLQDLASASLEEVNQLWAGLGYYSRGRRLQEGARKVVEELGGHMPRTAETLQQLLPGVGRYTKGAIASIAFGQATGVVDGNVARVLCRVRAIGADPSSTLVSQQLWGLAQQLVDPARPGDFNQAAMELGATVCTPQRPLCSQCPVESLCRARQRVEQEQLLASGSLSGSPDVEECAPNTGQCHLCLPPSEPWDQTLGVVNFPRKASRKPPREESSATCVLEQPGALGAQILLVQRPNSGLLAGLWEFPSVTWEPSEQLQRKALLQELQRWAGPLPATHLRHLGEVVHTFSHIKLTYQVYGLALEGQTPVTTVPPGARWLTQEEFHTAAVSTAMKKVFRVYQGQQPGTCMGSKRSQVSSPCSRKKPRMGQQVLDNFFRSHISTDAHSLNSAAQ [A192K],-1.07
11,MRKPRAAVGSGHRKQAASQEGRQKHAKNNSQAKPSACDGLARQPEEVVLQASVSSYHLFRDVAEVTAFRGSLLSWYDQEKRDLPWRRRAEDEMDLDRRAYAVWVSEVMLQQTQVATVINYYTGWMQKWPTLQDLASASLEEVNQLWAGLGYYSRGRRLQEGARKVVEELGGHMPRTAETLQQLLPGVGRYTSGAIASIAFGQATGVVDGNVARVLCRVRAIGADPSSTLVSQQLWGLAQQLVDPARPGDFNQAAMELGATVCTPQRPLCSQCPVESLCRARQRVEQEQLLASGSLSGSPDVEECAPNTGQCHLCLPPSEPWDQTLGVVNFPRKASRKPPREESSATCVLEQPGALGAQILLVQRPNSGLLAGLWEFPSVTWEPSEQLQRKALLQELQRWAGPLPATHLRHLGEVVHTFSHIKLTYQVYGLALEGQTPVTTVPPGARWLTQEEFHTAAVSTAMKKVFRVYQGQQPGTCMGSKRSQVSSPCSRKKPRMGQQVLDNFFRSHISTDAHSLNSAAQ [A192S],-0.166
12,MRKPRAAVGSGHRKQAASQEGRQKHAKNNSQAKPSACDGLARQPEEVVLQASVSSYHLFRDVAEVTAFRGSLLSWYDQEKRDLPWRRRAEDEMDLDRRAYAVWVSEVMLQQTQVATVINYYTGWMQKWPTLQDLASASLEEVNQLWAGLGYYSRGRRLQEGARKVVEELGGHMPRTAETLQQLLPGVGRYTHGAIASIAFGQATGVVDGNVARVLCRVRAIGADPSSTLVSQQLWGLAQQLVDPARPGDFNQAAMELGATVCTPQRPLCSQCPVESLCRARQRVEQEQLLASGSLSGSPDVEECAPNTGQCHLCLPPSEPWDQTLGVVNFPRKASRKPPREESSATCVLEQPGALGAQILLVQRPNSGLLAGLWEFPSVTWEPSEQLQRKALLQELQRWAGPLPATHLRHLGEVVHTFSHIKLTYQVYGLALEGQTPVTTVPPGARWLTQEEFHTAAVSTAMKKVFRVYQGQQPGTCMGSKRSQVSSPCSRKKPRMGQQVLDNFFRSHISTDAHSLNSAAQ [A192H],-0.926
